Laboratory results taken from patent US20110250237A1, “IMMUNOGENIC AMPHIPATHIC PEPTIDE COMPOSITIONS” (priority 2008, published 2011).

Assay: Differential scanning calorimetry of peptide and particles
Assay type: physicochemical
Settings: normal saline, peptide 1.11 mg/ml, scanned 20° C. to 130° C.
Experimental: Differential scanning calorimetry is used to study the unfolding events associated with the peptide and particles. This technique is used to measure the amount of heat required to increase the temperature of the sample and reference, resulting in peaks at phase transition temperatures at which more heat is required by the samples to be maintained at the same temperature as the reference. In case of proteins the melting temperatures are determined at which half of the protein exists in an unfolded state.
The peptide of SEQ ID NO: 1 is used to form particles at peptide to lipid (POPC) molar ratios of 1:1.75, 1:3 and 1:7, the particles with peptide at concentration of 1.11 mg/ml and lipid at 0.55 mg/ml are used. The peptide alone and lipid alone are used as controls and the samples are scanned from 20° C. to 130° C.

DWLKAFYDKVAEKLKEAFLA [peptide SEQ ID NO: 1, amphipathic peptide]
phase transition: 50 °C
